Test results: PMC8109768, “Differential recognition of HIV-stimulated IL-1β and IL-18 secretion through NLR and NAIP signalling in monocyte-derived macrophages” (PLoS Pathogens, 2021)

B1: gp41TM/CT (domain or fragment)
chain: FIMIVGGLVGLRIVFAVLSIVNRVRQGYSPLSFQTHLPTPRGPDRPEGIEEEGGERDRDRSIRLVNGSLALIWDDLRSLCLFSYHRLRDLLLIVTRIVELLGRRGWEALKYWWNLLQYWSQELKNSAVSLLNATAIAVAEGTDRVIEVVQGACRAIRHIPRRIRQGLERILL

Columns and labels:
NAIP (human) [1] = target: NAIP (human) (UniProt Q13075); experiment: FRET or BRET; FRET between fluorophore-labelled antibodies (Alexa488 donor, Alexa546 acceptor) in monocyte-derived macrophages infected with HIV-1; dequenching of the donor after photobleaching of the acceptor
NAIP (human) [2] = target: NAIP (human) (UniProt Q13075); experiment: SPR; BIAcore 3000; NAIP amine-coupled to a CM5 chip; gp41 proteins (500ng, 1μg, 5μg, 10μg) injected at flow rate 10 ml/min for 240 s; flagellin as positive control; BIA EVALUATION 3.0
NAIP = target: T1, NAIP (human, UniProt Q13075-1 1-1403); experiment: as above; conditions: both partners purified
T1 construct: NAIP, human, endogenous protein; for SPR pulled out of a human cell lysate with an antibody column; also called human NAIP; endogenous NAIP; source: purified from human cell lysate (NHS column with NAIP antibody LS-B455, dialysis, gel filtration); endogenous, human monocyte-derived macrophages (in cells and in lysate)
T1 sequence (looked up): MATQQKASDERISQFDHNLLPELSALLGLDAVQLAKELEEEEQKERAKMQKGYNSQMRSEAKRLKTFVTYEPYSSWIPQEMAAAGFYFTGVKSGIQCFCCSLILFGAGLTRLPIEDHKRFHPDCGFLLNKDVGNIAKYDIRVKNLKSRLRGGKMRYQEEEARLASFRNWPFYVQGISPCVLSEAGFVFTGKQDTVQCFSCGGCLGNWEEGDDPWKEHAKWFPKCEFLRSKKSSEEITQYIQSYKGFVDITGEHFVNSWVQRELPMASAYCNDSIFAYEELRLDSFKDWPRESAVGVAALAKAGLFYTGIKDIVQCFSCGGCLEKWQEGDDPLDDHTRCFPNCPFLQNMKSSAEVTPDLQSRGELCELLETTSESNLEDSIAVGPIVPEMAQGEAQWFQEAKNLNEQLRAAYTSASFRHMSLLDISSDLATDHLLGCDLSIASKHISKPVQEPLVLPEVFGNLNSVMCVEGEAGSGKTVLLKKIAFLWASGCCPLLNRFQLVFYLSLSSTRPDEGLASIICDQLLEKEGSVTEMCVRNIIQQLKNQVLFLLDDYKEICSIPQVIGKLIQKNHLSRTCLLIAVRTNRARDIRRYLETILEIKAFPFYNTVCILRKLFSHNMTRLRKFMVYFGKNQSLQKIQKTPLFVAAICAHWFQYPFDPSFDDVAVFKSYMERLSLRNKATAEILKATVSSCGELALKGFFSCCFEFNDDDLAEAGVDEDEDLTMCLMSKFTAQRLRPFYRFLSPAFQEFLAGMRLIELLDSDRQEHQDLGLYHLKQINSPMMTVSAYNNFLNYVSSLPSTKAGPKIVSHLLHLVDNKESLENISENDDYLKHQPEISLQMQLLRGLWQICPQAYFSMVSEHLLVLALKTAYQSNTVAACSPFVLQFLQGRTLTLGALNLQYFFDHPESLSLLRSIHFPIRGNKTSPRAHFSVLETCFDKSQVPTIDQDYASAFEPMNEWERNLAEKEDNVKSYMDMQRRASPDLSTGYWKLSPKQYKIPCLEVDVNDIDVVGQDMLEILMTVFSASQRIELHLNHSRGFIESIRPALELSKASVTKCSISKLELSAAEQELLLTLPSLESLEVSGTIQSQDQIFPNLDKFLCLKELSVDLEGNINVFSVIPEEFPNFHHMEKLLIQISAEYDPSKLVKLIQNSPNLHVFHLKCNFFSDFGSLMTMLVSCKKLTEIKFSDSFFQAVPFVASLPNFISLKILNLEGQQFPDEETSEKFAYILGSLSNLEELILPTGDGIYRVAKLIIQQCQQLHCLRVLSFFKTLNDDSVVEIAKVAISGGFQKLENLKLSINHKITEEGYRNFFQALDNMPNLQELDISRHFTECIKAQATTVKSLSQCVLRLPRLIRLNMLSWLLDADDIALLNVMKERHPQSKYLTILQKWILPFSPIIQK

| Molecule | FRET efficiency E (NAIP (human) [1]) | Kd (NAIP (human) [2]) | koff (NAIP (human) [2]) | kon (NAIP (human) [2]) | Kd (NAIP) | koff (NAIP) | kon (NAIP) |
| --- | --- | --- | --- | --- | --- | --- | --- |
| HIV-1 glycoprotein 41 (gp41) (natural protein) | 24% |  |  |  |  |  |  |
| gp41 CT (from UniProt P04578 707-856) (domain or fragment) |  | 0.413 nM | 9.87e-06 s⁻¹ | 23900 M⁻¹ s⁻¹ |  |  |  |
| Flagellin (from UniProt P06179 1-495) (natural protein) |  | 0.0247 nM | 9.81e-07 s⁻¹ | 39700 M⁻¹ s⁻¹ |  |  |  |
| B1 |  |  |  |  | 1.59 nM | 6.91e-05 s⁻¹ | 43500 M⁻¹ s⁻¹ |
